From patent US20070003522A1 (published 2007)

Biological target: T1, mouse transferrin receptor 1 (TfR1) on TRH3 cells (293T cells stably expressing mouse TfR1) (mouse, UniProt Q62351 1-763)
T1 construct: whole, on cells; also called mTfR1; CD71
Assay: FACS on TRH3 cells, anti-TfR1 antibody staining after incubation with pseudovirus

T1 sequence (Q62351 whole entry): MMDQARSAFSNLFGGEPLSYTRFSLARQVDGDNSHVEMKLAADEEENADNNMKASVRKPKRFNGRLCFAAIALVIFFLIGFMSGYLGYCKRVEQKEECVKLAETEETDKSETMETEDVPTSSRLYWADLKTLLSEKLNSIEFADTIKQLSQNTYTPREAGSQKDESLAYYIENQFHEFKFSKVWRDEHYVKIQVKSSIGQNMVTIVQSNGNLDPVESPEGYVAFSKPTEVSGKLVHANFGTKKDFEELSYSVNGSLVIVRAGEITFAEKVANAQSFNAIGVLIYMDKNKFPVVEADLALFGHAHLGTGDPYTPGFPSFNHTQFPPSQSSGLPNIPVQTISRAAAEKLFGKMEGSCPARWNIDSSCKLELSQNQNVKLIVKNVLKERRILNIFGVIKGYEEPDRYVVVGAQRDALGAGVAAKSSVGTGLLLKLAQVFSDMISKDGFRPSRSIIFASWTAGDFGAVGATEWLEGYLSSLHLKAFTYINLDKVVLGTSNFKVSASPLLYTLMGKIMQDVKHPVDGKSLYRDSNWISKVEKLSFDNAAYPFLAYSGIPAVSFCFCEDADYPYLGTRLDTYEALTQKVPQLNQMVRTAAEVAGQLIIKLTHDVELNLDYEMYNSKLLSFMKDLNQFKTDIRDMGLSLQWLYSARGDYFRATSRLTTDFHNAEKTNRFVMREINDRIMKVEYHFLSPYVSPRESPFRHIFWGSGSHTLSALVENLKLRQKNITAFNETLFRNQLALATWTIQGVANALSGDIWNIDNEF

B1: wild-type MMTV (C3H strain) env protein on pseudotyped MoMLV virus (other)
chain: ESYWAYLPKPPILHPVGWGNTDPIRVLTNQTIYLGGSPDFHGFRNMSGNVHFEGKSDTLPICFSFSFSTPTGCFQVDKQVFLSDTPTVDNNKPGGKGDKRRMWELWLTTLGNSGANTKLVPIKKKLPPKYPHCQIAFKKDAFWEGDESAPPRWLPCAFPDQGVSFSPKGALGLLWDFSLPSPSVDQSDQIKSKKDLFGNYTPPVNKEVHRWYEAGWVEPTWFWENSPKDPNDRDFTALVPHTELFRLVAASRYLILKRPGFQEHDMIPTSACVTYPHAILLGLPQLIDIEKRGSTFHISCSSCRLTNCLDSSAYDYAAIIVKRPPYVLLPVDIGDEPWFDDSAIQTFRYATDLIRAKRFVAAIILGISALIAIITSFAVATTALVKEMQTATFVNNLHRNVTLALSEQRIIDLKLEARLNALEEVVLELGQDVANLKTRMSTRCHANYDFICVTPLPYNASESWERTKAHLLGIWNDNEISYNIQELTNLISDMSKQHIDTVDLSGLAQSFANGVKALNPLDWTQYFIFIGVGALLLVIVLMIFPIVFQCLAKSLDQVQSDLNVLLLKKKKGGNAAPAAEMVELPRVSYT
notes: On virions it is processed into SU (gp52) and TM (gp36); also called wild type pseudovirus; wt
B1: binds.
